Six sequences from patent US20240200044 can be followed below.

Data set [1] concerns ATM-L TALEN L3-1 (in cells) A252T,Q505K,Q745P (full TALE construct numbering) (synthetic construct). Nature of the data set: cell_activity. Particulars: U2OS.
The subject of data set [2] is ATM-L TALEN L3-2 (in cells) A252T,L338S,Q505K,Q745P (full TALE construct numbering) (synthetic construct). Nature of the data set: cell_activity. The note with it: U2OS.
The subject of data set [3] is ATM-L TALEN L1-2 (A252T) A252T (full TALE construct numbering) (synthetic construct). Nature of the data set: cleavage_in_vitro. The note with it: canonical 6.3% in same experiment.
The subject of data set [4] is canonical ATM-R TALEN (synthetic construct). Nature of the data set: cleavage_in_vitro. The note with it: 12 nM, 90 min, paired with canonical ATM-L.

Regarding “GGAAATGGGATACTGAGT (double strand) [OffA17 left half-site]”, the activity in data set [1] is below 0.001 % indels; in data set [2] (HEK293 0.025%), below 0.001 % indels; in data set [3], 0.3 % cleavage.
For “TAGATTGAAATGCTGTTT (double strand) [OffA23 left half-site]”, the activity in data set [1] and in data set [2] was below 0.001 % indels in each case.
Take “TGAATAGGAAATATATTT (double strand) [OffA1 left half-site]”: the activity in data set [1] is below 0.001 % indels; in data set [2], 0.002 % indels.
As for “TGAATTGAGAGAAGCATT (double strand) [OffA11 left half-site]”, the activity in data set [1] (control 0.001%, not significant) worked out at 0.002 % indels; in data set [2] (not significant, HEK293 <0.001%), 0.002 % indels.
“TGAATTGGGATGCTGTTT (double strand) [ATM left half-site on-target]”: the activity in data set [1] is 7.04 % indels; in data set [2] (HEK293 23.26%), 7.97 % indels.
In data set [4], “TTTATTTTACTGTCTTTA (double strand) [ATM right half-site on-target (sense strand)]” yielded an activity of 31.5 % cleavage.
